Assay results reported in publication PMC12901202.
pKd: −log10 of the molar value.

Molecular target: SARS-CoV-2 JN.1 RBD, biotinylated (SARS-CoV-2) (UniProt P0DTC2)
Experiment: BLI; […]; 300 s association, 300 s dissociation; 10x kinetics buffer; […]; global fit, 1:1 model; […]

TRI2-2 homotrimeric miniprotein inhibitor (designed binder)
pKd: 8.21
koff: 0.00175 s⁻¹
kon: 282000 M⁻¹ s⁻¹
